Data taken from US20240116985A1 (published 2024).
Starred links: 1 amine or outer side, 2 acyl side, 3 side chain; linkers in the order of their positions; H or OH if unused. Positions of bridges follow the written chain, without caps; N, C: chain ends. Non-standard residues stand in square brackets, D forms with d. Primed or numbered codes have the meaning given here. *: point of attachment. PyrS2″ = (S)-3-amino-1-((pent-4-en-1-yloxy)carbonyl)pyrrolidine-3-carboxylic acid (stapling residue), C=CCCCOC(=O)N1CC[C@@](N[*:1])(C(=O)[*:2])C1; B5(5) = 2,2-bis(4-pentenyl)glycine, 2-amino-2-(pent-4-en-1-yl)hept-6-enoic acid (stitching residue), C=CCCCC(CCCC=C)(N[*:1])C(=O)[*:2]; B5(33) = 2-amino-2-(pent-4-en-1-yl)hept-6-enoic acid (bis-pentenylglycine, two olefin side chains), C=CCCCC(CCCC=C)(N[*:1])C(=O)[*:2]; TfeGA = (S)-2-amino-3-((carboxymethyl)(2,2,2-trifluoroethyl)amino)propanoic acid, O=C([C@H](CN(CC(=O)[*:3])CC(F)(F)F)N[*:1])[*:2]; PyrS2 = (S)-3-amino-1-((pent-4-en-1-yloxy)carbonyl)pyrrolidine-3-carboxylic acid, C=CCCCOC(=O)N1CC[C@@](N[*:1])(C(=O)[*:2])C1; B5(3) = 2,2-bis(4-pentenyl)glycine (stitching residue), C=CCCCC(CCCC=C)(N[*:1])C(=O)[*:2]; mPEG2 = N-terminal 3-(2-methoxyethoxy)propanoic acid, COCCOCCC(=O)*; Phe(3-COOH) = N[C@@H](Cc1cccc(C(=O)O)c1)C(=O)O; Phe(2-Cl) = N[C@@H](Cc1ccccc1Cl)C(=O)O; 1Nal = N[C@@H](Cc1cccc2ccccc12)C(=O)O; 2Nal = N[C@@H](Cc1ccc2ccccc2c1)C(=O)O; Bta = N[C@@H](Cc1csc2ccccc12)C(=O)O; αAllylPro = C=CC[C@@]1(C(=O)O)CCCN1; tBuAla = CC(C)(C)C[C@H](N)C(=O)O; 3Thi = N[C@@H](Cc1ccsc1)C(=O)O; S8 = C=CCCCCCC[C@](C)(N)C(=O)O; Propanoyl(3-OMe) = COCCC(=O)*; Ms = CS(=O)(=O)*

T1: B-cat-Halo (Homo sapiens (Human), UniProt P35222 1-781)
T1 sequence: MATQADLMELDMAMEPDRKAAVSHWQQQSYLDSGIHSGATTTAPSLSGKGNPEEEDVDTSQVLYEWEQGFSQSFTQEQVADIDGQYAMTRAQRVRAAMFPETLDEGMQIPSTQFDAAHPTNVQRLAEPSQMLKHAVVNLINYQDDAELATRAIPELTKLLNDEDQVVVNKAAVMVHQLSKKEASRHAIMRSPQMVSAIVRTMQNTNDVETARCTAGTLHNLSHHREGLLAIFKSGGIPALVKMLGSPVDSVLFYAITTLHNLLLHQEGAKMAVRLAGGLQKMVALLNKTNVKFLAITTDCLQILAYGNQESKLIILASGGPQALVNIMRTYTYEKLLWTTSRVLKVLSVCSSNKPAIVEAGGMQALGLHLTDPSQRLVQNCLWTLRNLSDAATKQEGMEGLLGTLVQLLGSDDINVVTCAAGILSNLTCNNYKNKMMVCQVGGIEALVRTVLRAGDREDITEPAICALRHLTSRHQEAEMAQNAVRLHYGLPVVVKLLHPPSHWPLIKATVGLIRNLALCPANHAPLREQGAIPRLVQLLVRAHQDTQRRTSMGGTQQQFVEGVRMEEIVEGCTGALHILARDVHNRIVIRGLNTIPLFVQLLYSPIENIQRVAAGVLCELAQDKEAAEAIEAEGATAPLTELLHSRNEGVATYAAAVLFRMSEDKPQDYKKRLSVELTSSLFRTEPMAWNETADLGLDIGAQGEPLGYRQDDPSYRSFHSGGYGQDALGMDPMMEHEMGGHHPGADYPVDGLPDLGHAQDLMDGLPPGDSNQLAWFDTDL

T2: B-cat-Halo (beta-catenin HaloTag NanoBRET construct expressed in HEK293 cells) (Homo sapiens (Human), UniProt P35222 1-781)
T2 sequence: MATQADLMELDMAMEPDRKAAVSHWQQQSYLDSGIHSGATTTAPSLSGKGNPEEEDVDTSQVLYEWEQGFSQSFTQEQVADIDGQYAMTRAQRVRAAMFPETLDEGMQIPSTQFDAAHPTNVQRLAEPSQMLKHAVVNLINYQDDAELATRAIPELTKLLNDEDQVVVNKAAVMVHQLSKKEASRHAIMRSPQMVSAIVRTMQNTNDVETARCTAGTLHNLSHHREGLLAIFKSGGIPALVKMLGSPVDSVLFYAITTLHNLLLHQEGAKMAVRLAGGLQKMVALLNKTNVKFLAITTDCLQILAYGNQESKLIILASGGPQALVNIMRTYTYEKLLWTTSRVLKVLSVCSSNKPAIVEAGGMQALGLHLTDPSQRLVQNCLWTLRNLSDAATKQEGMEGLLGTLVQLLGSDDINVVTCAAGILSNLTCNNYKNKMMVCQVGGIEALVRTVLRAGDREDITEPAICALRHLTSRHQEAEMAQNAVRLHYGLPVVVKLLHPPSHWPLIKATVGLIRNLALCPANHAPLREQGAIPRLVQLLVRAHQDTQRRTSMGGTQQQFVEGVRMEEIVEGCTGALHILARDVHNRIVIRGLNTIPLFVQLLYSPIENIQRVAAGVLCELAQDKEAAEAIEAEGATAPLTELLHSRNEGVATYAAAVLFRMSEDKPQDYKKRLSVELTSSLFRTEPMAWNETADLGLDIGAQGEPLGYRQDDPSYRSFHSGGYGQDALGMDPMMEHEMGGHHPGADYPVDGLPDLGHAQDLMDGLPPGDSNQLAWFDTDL


Key:
B-cat-Halo = molecular target: T1, B-cat-Halo; assay: cell-based or functional assay
[1] = molecular target: T2, B-cat-Halo (beta-catenin HaloTag …); assay: cell-based or functional assay

Binder	NanoBRET Abs IC50 (B-cat-Halo) [µM]	NanoBRET Abs IC50 [1] [µM]
Ac-[αAllylPro]D[tBuAla][B5(3)]D[Phe(3-COOH)]AAFA[PyrS2″][Phe(2-Cl)][Bta]N-NH2 (staple 1-4, 4-11; also: staple isomer, earlier eluting HPLC peak) [I-2035]	14.5	
Ac-[αAllylPro]D[tBuAla][B5(3)]D[Phe(3-COOH)]AAFS[PyrS2″][Phe(2-Cl)][Bta]N-NH2 (staple 1-4, 4-11) [I-2039]	10.5	
Ac-[αAllylPro]D[tBuAla][B5(33)]DTALFT[PyrS2]F[Bta]S-NH2 (staple 1-4, 4-11) [I-1265]		22.7
mPEG2-[αAllylPro]D[tBuAla][B5(33)]DDAAFT[S8][Phe(2-Cl)][Bta]Q-NH2 (staple 1-4, 4-11) [I-1255]		> 20
Ac-[αAllylPro]D[tBuAla][B5(33)]DTLAFT[PyrS2]F[Bta]S-NH2 (staple 1-4, 4-11) [I-1264]		> 20
Ac-[αAllylPro]D[tBuAla][B5(3)]D[Phe(3-COOH)]AAFF[PyrS2″][3Thi][Bta]N-NH2 (staple 1-4, 4-11) [I-2044]	2.6	
Ac-[αAllylPro]D[tBuAla][B5(5)]DTAA[2Nal]T[PyrS2″]F[Bta]S-NH2 (staple 1-4, 4-11) [I-1267]		36.9
Ac-[αAllylPro]D[tBuAla][B5(3)]D[Phe(3-COOH)]AAFL[PyrS2″][3Thi][Bta]NAAA-NH2 (staple 1-4, 4-11) [I-2046]	2.9	
{Propanoyl(3-OMe)}-[αAllylPro]D[tBuAla][B5(33)]DDAAFT[S8][Phe(2-Cl)][Bta]Q-NH2 (staple 1-4, 4-11) [I-1261]		19.8
Ac-[αAllylPro]D[tBuAla][B5(3)]D[Phe(3-COOH)]AAFA[PyrS2″][Phe(2-Cl)][Bta]N-NH2 (staple 1-4, 4-11) [I-2036]	12.9	
Ac-[αAllylPro]D[tBuAla][B5(3)]D[TfeGA]AAFL[PyrS2″][3Thi][Bta]Q-NH2 (staple 1-4, 4-11; not fully specified (residue 9)) [I-2048]	28.8	
Ms-[αAllylPro]D[tBuAla][B5(33)]DDAAFN[PyrS2][Phe(2-Cl)][Bta][dT]-NH2 (staple 1-4, 4-11; not fully specified; printed as MeSO2-PL3-Asp-Npg-B5-Asp-Asp-Ala-Ala-Phe-Asn-PyrS2-2C1F-BztA-dThr-NH2) [I-1258]		> 20
Ac-[αAllylPro]D[tBuAla][B5(5)]DTAA[1Nal]T[PyrS2″]F[Bta]S-NH2 (staple 1-4, 4-11) [I-1266]		> 20
